Laboratory results as given in paper PMC8564726 (2021).
One block for each binder: values may come before it.

Assays:
[1] = target: H3K9me1 monomethylated mononucleosome (methyl-lysine analog), 147 bp 601 DNA 5'-fluorescein-labeled (monomethyl-lysine analog (MLA) at K9); experiment: FP
[2] = target: unmethylated mononucleosome (H3K9me0), 147 bp 601 DNA 5'-fluorescein-labeled; experiment: FP
H3K9me0 peptide [3] = target: T1, H3K9me0 peptide (Homo sapiens, unmethylated K9; fluorescein label; H3(1-20) in mature numbering (initiator Met removed)); experiment: FP; MBP-tagged full-length G9a; lower limit, no saturation
[4] = target: H3K9me2 dimethylated mononucleosome (methyl-lysine analog), 147 bp 601 DNA 5'-fluorescein-labeled (dimethyl-lysine analog (MLA) at K9); experiment: FP
H3K9me0 peptide [5] = target: T1, H3K9me0 peptide; experiment: FP; lower limit, no saturation

Kd [1]: 5 µM
B1: GLP ANK-SET homodimer (complex)
chain: QEKSLAAEGRADTTTGSIAGAPEDERSQSTAPQAPECFDPAGPAGLVRPTSGLSQGPGKETLESALIALDSEKPKKLRFHPKQLYFSARQGELQKVLLMLVDGIDPNFKMEHQSKRSPLHAAAEAGHVDICHMLVQAGANIDTCSEDQRTPLMEAAENNHLDAVKYLIKAGAQVDPKDAEGSTCLHLAAKKGHYDVVQYLLSNGQMDVNCQDDGGWTPMIWATEYKHVELVKLLLSKGSDINIRDNEENICLHWAAFSGCVDIAEILLAAKCDLHAVNIHGDSPLHIAARENRYDCVVLFLSRDSDVTLKNKEGETPLQCASLSSQVWSALQMSKALRDSAPDKPVAVEKTVSRDIARGYERIPIPCVNAVDSELCPTNYKYVSQNCVTSPMNIDRNITHLQYCVCVDDCSSSTCMCGQLSMRCWYDKDGRLLPEFNMAEPPLIFECNHACSCWRNCRNRVVQNGLRARLQLYRTQDMGWGVRSLQDIPLGTFVCEYVGELISDSEADVREEDSYLFDLDNKDGEVYCIDARFYGNVSRFINHHCEPNLVPVRVFMSHQDLRFPRIAFFSTRLIQAGEQLGFDYGERFWDVKGKLFSCRCGSSKCRHSSAALAQRQASAAQEPQENGLPDTSSAAAADPL

Kd [2]: > 70 µM
B2: G9aS-GLP (protein)
chain 1: AHDAPGRADTSQPSARMRGHGEPRRPPCDPLADTIDSSGPSLTLPNGGCLSAVGLPPGPGREALEKALVIQESERRKKLRFHPRQLYLSVKQGELQKVILMLLDNLDPNFQSDQQSKRTPLHAAAQKGSVEICHVLLQAGANINAVDKQQRTPLMEAVVNNHLEVARYMVQLGGCVYSKEEDGSTCLHHAAKIGNLEMVSLLLSTGQVDVNAQDSGGWTPIIWAAEHKHIDVIRMLLTRGADVTLTDNEENICLHWASFTGSAAIAEVLLNAQCDLHAVNYHGDTPLHIAARESYHDCVLLFLSRGANPELRNKEGDTAWDLTPERSDVWFALQLNRKLRLGVGNRAVRTEKIICRDVARGYENVPIPCVNGVDGEPCPEDYKYISENCETSTMNIDRNITHLQHCTCVDDCSSSNCLCGQLSIRCWYDKDGRLLQEFNKIEPPLIFECNQACSCWRSCKNRVVQSGIKVRLQLYRTAKMGWGVRALQTIPQGTFICEVVGELISDAEADVREDDSYLFDLDNKDGEVYCIDARYYGNISRFINHLCDPNIIPVRVFMLHQDLRFPRIAFFSSRDIRTGEELGFDFGDRFWDIKSKYFTCQCGSEKCKHSAEAIALEQSRLARLDPHPELLPDLSSLPPINT
chain 2: PGQEKSLAAEGRADTTTGSIAGAPEDERSQSTAPQAPECFDPAGPAGLVRPTSGLSQGPGKETLESALIALDSEKPKKLRFHPKQLYFSARQGELQKVLLMLVDGIDPNFKMEHQSKRSPLHAAAEAGHVDICHMLVQAGANIDTCSEDQRTPLMEAAENNHLDAVKYLIKAGAQVDPKDAEGSTCLHLAAKKGHYDVVQYLLSNGQMDVNCQDDGGWTPMIWATEYKHVELVKLLLSKGSDINIRDNEENICLHWAAFSGCVDIAEILLAAKCDLHAVNIHGDSPLHIAARENRYDCVVLFLSRDSDVTLKNKEGETPLQCASLSSQVWSALQMSKALRDSAPDKPVAVEKTVSRDIARGYERIPIPCVNAVDSELCPTNYKYVSQNCVTSPMNIDRNITHLQYCVCVDDCSSSTCMCGQLSMRCWYDKDGRLLPEFNMAEPPLIFECNHACSCWRNCRNRVVQNGLRARLQLYRTQDMGWGVRSLQDIPLGTFVCEYVGELISDSEADVREEDSYLFDLDNKDGEVYCIDARFYGNVSRFINHHCEPNLVPVRVFMSHQDLRFPRIAFFSTRLIQAGEQLGFDYGERFWDVKGKLFSCRCGSSKCRHSSAALAQRQASAAQEPQENGLPDTSSAAAADPL

Kd (H3K9me0 peptide [3]): > 66 µM
B3: full-length G9a (enzyme)
chain: MRGLPRGRGLMRARGRGRAAPTGGRGRGRGGAHRGRGRPRSLLSLPRAQASWAPQLPAGLTGPPVPCLPSQGEAPAEMGALLLEKEPRGAAERVHSSLGDTPQSEETLPKANPDSLEPAGPSSPASVTVTVGDEGADTPVGAASLIGDEPESLEGDGGRIVLGHATKSFPSSPSKGGACPSRAKMSMTGAGKSPPSVQSLAMRLLSMPGAQGAATAGPEPSPATTAAQEGQPKVHRARKTMSKPSNGQPPIPEKRPPEVQHFRMSDDMHLGKVTSDVAKRRKLNSGSLSEDLGSAGGSGDIILEKGEPRPLEEWETVVGDDFSLYYDAYSVDERVDSDSKSEVEALAEQLSEEEEEEEEEEEEEEEEEEEEEEEEEDEESGNQSDRSGSSGRRKAKKKWRKDSPWVKPSRKRRKREPPRAKEPRGVNGVGSSGPSEYMEVPLGSLELPSEGTLSPNHAGVSNDTSSLETERGFEELPLCSCRMEAPKIDRISERAGHKCMATESVDGELLGCNAAILKRETMRPSSRVALMVLCEAHRARMVKHHCCPGCGYFCTAGTFLECHPDFRVAHRFHKACVSQLNGMVFCPHCGEDASEAQEVTIPRGDGGTPPIGTAAPALPPLAHDAPGRADTSQPSARMRGHGEPRRPPCDPLADTIDSSGPSLTLPNGGCLSAVGLPPGPGREALEKALVIQESERRKKLRFHPRQLYLSVKQGELQKVILMLLDNLDPNFQSDQQSKRTPLHAAAQKGSVEICHVLLQAGANINAVDKQQRTPLMEAVVNNHLEVARYMVQLGGCVYSKEEDGSTCLHHAAKIGNLEMVSLLLSTGQVDVNAQDSGGWTPIIWAAEHKHIDVIRMLLTRGADVTLTDNEENICLHWASFTGSAAIAEVLLNAQCDLHAVNYHGDTPLHIAARESYHDCVLLFLSRGANPELRNKEGDTAWDLTPERSDVWFALQLNRKLRLGVGNRAVRTEKIICRDVARGYENVPIPCVNGVDGEPCPEDYKYISENCETSTMNIDRNITHLQHCTCVDDCSSSNCLCGQLSIRCWYDKDGRLLQEFNKIEPPLIFECNQACSCWRSCKNRVVQSGIKVRLQLYRTAKMGWGVRALQTIPQGTFICEYVGELISDAEADVREDDSYLFDLDNKDGEVYCIDARYYGNISRFINHLCDPNIIPVRVFMLHQDLRFPRIAFFSSRDIRTGEELGFDYGDRFWDIKSKYFTCQCGSEKCKHSAEAIALEQSRLARLDPHPELLPDLSSLPPINT

Kd [1]: 14.8 µM
Kd [4]: 18.4 µM
Kd (H3K9me0 peptide [5]): > 100 µM
B4: G9a ANK-SET homodimer (complex)
chain: DAPGRADTSQPSARMRGHGEPRRPPCDPLADTIDSSGPSLTLPNGGCLSAVGLPPGPGREALEKALVIQESERRKKLRFHPRQLYLSVKQGELQKVILMLLDNLDPNFQSDQQSKRTPLHAAAQKGSVEICHVLLQAGANINAVDKQQRTPLMEAVVNNHLEVARYMVQLGGCVYSKEEDGSTCLHHAAKIGNLEMVSLLLSTGQVDVNAQDSGGWTPIIWAAEHKHIDVIRMLLTRGADVTLTDNEENICLHWASFTGSAAIAEVLLNAQCDLHAVNYHGDTPLHIAARESYHDCVLLFLSRGANPELRNKEGDTAWDLTPERSDVWFALQLNRKLRLGVGNRAVRTEKIICRDVARGYENVPIPCVNGVDGEPCPEDYKYISENCETSTMNIDRNITHLQHCTCVDDCSSSNCLCGQLSIRCWYDKDGRLLQEFNKIEPPLIFECNQACSCWRSCKNRVVQSGIKVRLQLYRTAKMGWGVRALQTIPQGTFICEYVGELISDAEADVREDDSYLFDLDNKDGEVYCIDARYYGNISRFINHLCDPNIIPVRVFMLHQDLRFPRIAFFSSRDIRTGEELGFDYGDRFWDIKSKYFTCQCGSEKCKHSAEAIALEQSRLARLDPHPELLPDLSSLPPINT

Kd [1]: 2.26 µM
Kd [4]: 4.76 µM
B5: G9a-GLP ANK-SET heterodimer (complex)
chain 1: B4 chain
chain 2: B1 chain
